From patent publication US6805861B2, “Immunotherapy using cytotoxic T lymphocytes (CTL)” (Imperial College Innovations Limited, priority 1996, dated 2004)
Read-outs that look alike come from different tables or passages of the source.

Legend:
[1] = target: T1, H-2K^b class I molecules (Mus musculus, UniProt P01901); test: Binding of peptide to H-2K^b class I molecules
T1 sequence (P01901 22-369): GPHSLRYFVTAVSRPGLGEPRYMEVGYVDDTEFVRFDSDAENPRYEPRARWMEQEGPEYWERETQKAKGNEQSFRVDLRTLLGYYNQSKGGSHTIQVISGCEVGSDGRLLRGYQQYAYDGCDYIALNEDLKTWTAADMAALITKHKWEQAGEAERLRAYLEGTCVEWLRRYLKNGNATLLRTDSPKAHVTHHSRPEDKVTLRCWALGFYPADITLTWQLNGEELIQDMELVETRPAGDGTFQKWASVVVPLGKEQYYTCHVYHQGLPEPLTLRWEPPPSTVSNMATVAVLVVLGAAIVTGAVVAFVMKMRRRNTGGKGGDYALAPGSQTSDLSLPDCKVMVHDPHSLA
T1 sequence (P01887 21-119 partner): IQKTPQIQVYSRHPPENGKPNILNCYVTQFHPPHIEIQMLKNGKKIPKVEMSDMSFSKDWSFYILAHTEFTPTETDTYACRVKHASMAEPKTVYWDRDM
Experimental: Peptides: The mdm100 peptide corresponds to amino acid 100-107 (YAMIYRNL; SEQ ID No 1) of the murine mdm-2 protein. […] All peptides used in this study were synthesised by the central peptide synthesis laboratory of the Imperial Cancer Research Fund, London, using finoc chemistry. The quality of the peptides were assessed by HPLC analysis and the expected molecular weight was observed using MALDI mass-spectrometry. The peptides were dissolved in phosphate buffered saline (pH 7.4) to give a concentration of 2 mM and stored at −20° C.

[2] = CTL stimulation by mdm100 peptide in C57BL/6 mice; type: in vivo, mouse; details: self-restricted repertoire

binding to H-2K^b class I molecules [1]: bound efficiently
binding to H-2K^b class I molecules ([1]; listed as mdm100): efficiently bound
Sequence: YAMIYRNL [mdm100 peptide]
CTL stimulated by the peptide in C57BL/6 mice (H-2^b) [2]: only stimulated low avidity CTL
